These results are taken from patent publication US20120283136A1, “COMPOSITIONS AND METHODS FOR THE RAPID BIOSYNTHESIS AND IN VIVO SCREENING OF BIOLOGICALLY RELEVANT PEPTIDES” (THE UNIVERSITY OF SOUTHERN CALIFORNIA, priority 2009, published 2012).

Entries after “also recorded” stand apart in the source; their conditions may differ. Where no end group is shown, it is not given here.

In series [1] the target is LF protease (Bacillus anthracis, UniProt P15917). Type of series: biochemical, B. anthracis strain Sterne.
For series [2] the following is noted: Saether et al. (1995); cited from earlier work.
Series [3] concerns the target trypsin. Conditions: read-out: Ki (affinity for trypsin); cited from earlier work.
In series [4] the target is trypsin (Sus scrofa, UniProt P00761). Briefly: Competing trypsin-binding experiments (sequential extraction with limiting trypsin-sepharose). Conditions: in vitro and in vivo cyclized libraries, trypsin-sepharose under competing conditions (about 20% of beads required for stoichiometric binding), MCoTI-I wt as internal reference.
Sequence of trypsin (Sus scrofa, UniProt P00761) (P00761 9-231): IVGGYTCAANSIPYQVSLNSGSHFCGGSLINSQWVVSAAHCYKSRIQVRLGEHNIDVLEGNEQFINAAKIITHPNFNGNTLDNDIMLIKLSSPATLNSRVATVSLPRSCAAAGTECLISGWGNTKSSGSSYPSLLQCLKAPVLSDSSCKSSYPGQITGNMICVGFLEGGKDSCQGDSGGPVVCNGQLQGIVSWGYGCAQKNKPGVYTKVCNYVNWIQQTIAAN

Consider “H-RRKKVYPYPMEGTIA-NH2 [consensus LF substrate peptide made by Fmoc solid-phase synthesis]”, for which the “time for cleavage of the P1-P1′ peptide bond by LF” value in series [1] is listed as “less than 15 minutes”.
As for “Kalata B1 (cyclo(GLPVCGETCVGGTCNTPGCTCSWPVCTRN); ends not checked; also: three disulfide bonds (cystine knot), pairing not given here; UniProt P56254 89-117, looked up) [first cyclotide to be discovered, from Oldenlandia affinis]”, the oral bioavailability entry in series [2] is “orally bioavailable”.
On to “MCoTI-II (cyclo(SGSDGGVCPKILKKCRRDSDCPGACICRGNGYCG); ends not checked; also: three disulfide bonds (cystine knot), pairing not given here; UniProt P82409 1-34, looked up)”, for which the Ki (in general, the dissociation constant of the complex between target and ligand, obtained from inhibition or displacement) in series [3] was approximately 2 pM.
As for “Q7G (CGSGSDGGVCPKILGRCRRDSDCPGACICRGNGY; not fully specified (bridges); ends and bridges not checked)”, the “relative affinity for trypsin versus MCoTI-I wt (elution profile)” value in series [4] is “lower affinity; also recorded: weaker affinity”.
